Target: eEF-2 (Homo sapiens, UniProt P13639)
Test: kinase inhibition assay

B1: eEF-2K 562-725 (protein)
chain: GELEAIVGLGLMYSQLPHHILADVSLKETEENKTKGFDYLLKAAEAGDRQSMILVARAFDSGQNLSPDRCQDWLEALHWYNTALEMTDCDEGGEYDGMQDEPRYMMLAREAEMLFTGGYGLEKDPQRSGDLYTQAAEAAMEAMKGRLANQYYQKAEEAWAQMEE
- Ki: ~9 µM
